Results taken from FireProtDB (doi:10.1016/0141-8130(95)93517-2).

Details: Armoracia rusticana, CD, reversible: yes, whole UniProt chain shown
[1] = pH 3.2, 22 °C, GdnHCl, glycine 50 mM
[2] = pH 3.2, 22 °C, Urea, glycine 50 mM
[3] = pH 3.2, 25 °C, GdnHCl, glycine 50 mM
[4] = pH 3.2, 25 °C, Urea, glycine 50 mM
[5] = pH 3.2, 27 °C, GdnHCl, glycine 50 mM
[6] = pH 3.2, 27 °C, Urea, glycine 50 mM
[7] = pH 3.2, 30 °C, GdnHCl, glycine 50 mM
[8] = pH 3.2, 30 °C, Urea, glycine 50 mM
[9] = pH 6.4, 22 °C, GdnHCl, sodium phosphate 2.5 mM
[10] = pH 6.4, 22 °C, Urea, sodium phosphate 2.5 mM
[11] = pH 6.4, 25 °C, GdnHCl, sodium phosphate 2.5 mM
[12] = pH 6.4, 25 °C, Urea, sodium phosphate 2.5 mM
[13] = pH 6.4, 27 °C, GdnHCl, sodium phosphate 2.5 mM
[14] = pH 6.4, 27 °C, Urea, sodium phosphate 2.5 mM
[15] = pH 6.4, 30 °C, GdnHCl, sodium phosphate 2.5 mM
[16] = pH 6.4, 30 °C, Urea, sodium phosphate 2.5 mM
[17] = pH 10, 22 °C, GdnHCl, glycine 50 mM
[18] = pH 10, 22 °C, Urea, glycine 50 mM
[19] = pH 10, 25 °C, GdnHCl, glycine 50 mM
[20] = pH 10, 25 °C, Urea, glycine 50 mM
[21] = pH 10, 27 °C, GdnHCl, glycine 50 mM
[22] = pH 10, 27 °C, Urea, glycine 50 mM
[23] = pH 10, 30 °C, GdnHCl, glycine 50 mM
[24] = pH 10, 30 °C, Urea, glycine 50 mM

B1: Peroxidase C2 wild type, P17179 (protein)
chain: MHSSSSLIKLGFLLLLLNVSLSHAQLSPSFYDKTCPQVFDIATNTIKTALRSDPRIAASILRLHFHDCFVNGCDASILLDNTTSFRTEKDAFGNARSARGFDVIDTMKAAVEKACPKTVSCADLLAIAAQKSVVLAGGPSWKVPSGRRDSLRGFMDLANDNLPGPSSTLQVLKDKFRNVGLDRPSDLVALSGGHTFGKNQCQFIMDRLYNFSNSGKPDPTLDKSYLSTLRKQCPRNGNLSVLVDFDLRTPTIFDNKYYVNLKENKGLIQSDQELFSSPDASDTIPLVRAYADGQGKFFDAFVEAMIRMGNLSPSTGKQGEIRLNCRVVNSKPKIMDVVDTNDFASSI
- denaturant m value [1]: 2.86 kcal/mol/M
- unfolding free energy [1]: 6.75 kcal/mol
- denaturant m value [2]: 1.23 kcal/mol/M
- unfolding free energy [2]: 6.42 kcal/mol
- denaturant m value [3]: 2.94 kcal/mol/M
- unfolding free energy [3]: 6.25 kcal/mol
- denaturant m value [4]: 1.26 kcal/mol/M
- unfolding free energy [4]: 5.94 kcal/mol
- denaturant m value [5]: 2.99 kcal/mol/M
- unfolding free energy [5]: 5.68 kcal/mol
- denaturant m value [6]: 1.31 kcal/mol/M
- unfolding free energy [6]: 5.63 kcal/mol
- denaturant m value [7]: 3.2 kcal/mol/M
- unfolding free energy [7]: 4.98 kcal/mol
- denaturant m value [8]: 1.37 kcal/mol/M
- unfolding free energy [8]: 5.18 kcal/mol
- denaturant m value [9]: 4.75 kcal/mol/M
- unfolding free energy [9]: 6.68 kcal/mol
- denaturant m value [10]: 2.02 kcal/mol/M
- unfolding free energy [10]: 6.45 kcal/mol
- denaturant m value [11]: 4.9 kcal/mol/M
- unfolding free energy [11]: 6.38 kcal/mol
- denaturant m value [12]: 2.06 kcal/mol/M
- unfolding free energy [12]: 5.94 kcal/mol
- denaturant m value [13]: 5.08 kcal/mol/M
- unfolding free energy [13]: 6.22 kcal/mol
- denaturant m value [14]: 2.11 kcal/mol/M
- unfolding free energy [14]: 5.87 kcal/mol
- denaturant m value [15]: 5.16 kcal/mol/M
- unfolding free energy [15]: 5.62 kcal/mol
- denaturant m value [16]: 2.18 kcal/mol/M
- unfolding free energy [16]: 5.69 kcal/mol
- denaturant m value [17]: 2.85 kcal/mol/M
- unfolding free energy [17]: 6.7 kcal/mol
- denaturant m value [18]: 1.28 kcal/mol/M
- unfolding free energy [18]: 6.71 kcal/mol
- denaturant m value [19]: 2.99 kcal/mol/M
- unfolding free energy [19]: 6.4 kcal/mol
- denaturant m value [20]: 1.3 kcal/mol/M
- unfolding free energy [20]: 6.36 kcal/mol
- denaturant m value [21]: 3.11 kcal/mol/M
- unfolding free energy [21]: 5.87 kcal/mol
- denaturant m value [22]: 1.37 kcal/mol/M
- unfolding free energy [22]: 6.04 kcal/mol
- denaturant m value [23]: 3.17 kcal/mol/M
- unfolding free energy [23]: 5.23 kcal/mol
- denaturant m value [24]: 1.4 kcal/mol/M
- unfolding free energy [24]: 5.54 kcal/mol
